In US20180371433A1 (UNIVERSITY OF FLORIDA RESEARCH FOUNDATION, published 2018):

Key:
[1] = biological target: T1, SAMP1 with deletion of the C-terminal diglycine residues (ΔGG), D4GUF6
T1 chain: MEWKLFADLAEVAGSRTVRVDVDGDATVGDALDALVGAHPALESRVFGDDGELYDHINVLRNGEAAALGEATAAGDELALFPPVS

[2] = biological target: T2, ubiquitin-like SAMP1, D4GUF6
T2 chain: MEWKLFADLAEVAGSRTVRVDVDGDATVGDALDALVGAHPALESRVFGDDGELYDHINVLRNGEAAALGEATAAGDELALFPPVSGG

[3] = biological target: the molecule itself; test: size exclusion chromatography (Superdex 200); hexamers of ~134 kDa and trimers of ~64 kDa
Procedure: HvPPA (HVO_0729, UniProt: D4GT97) was expressed with an N-terminal poly-histidine tag (His₆) in Hfx. volcanii H26-pJAM2920 (Table 1). Hfx. volcanii cells were grown to stationary phase (OD₆₀₀ of 3-3.5) (4×1-liter cultures in 2.8-liter Fernbach flasks) and harvested by centrifugation (10-15 min at 9,200× g and 25° C.). Cell pellets were resuspended at 5 ml per g wet weight cells in Tris-salt buffer (20 mM Tris-HCl, pH 7.5, 2 M NaCl and 2.5 mM MgCl₂) supplemented with 40 mM imidazole and 1 mini-tablet protease inhibitor cocktail (Roche product no. 05892791001) per 10 ml buffer. Cells were lysed by passing through a French Press (three times at 20,000 psi). Whole cell lysate was clarified by centrifugation (twice for 30 min at 9,200× g and 4° C.) and sequential filtration using 0.8 μm and 0.2 μm cellulose acetate filters (Thermo Scientific Nalgene). Clarified cell lysate was applied to a HisTrap HP column (5 ml, 17-5248-01, GE Healthcare) pre-equilibrated and washed in 100 ml of Tris-salt buffer with 40 mM imidazole. Fractions containing HvPPA were eluted in Tris-salt buffer with a 25 ml gradient from 40 mM to 500 mM imidazole. […] Purity of HvPPA was assessed by Coomassie Blue stained SDS-PAGE gels and PPi activity assay. […]

B1: UbaA of Hfx. volcanii (protein)
chain: MTLSLDATQLDRYSRHIIMDEVGPEGQGRLLSSRVVVVGAGGLGAPAIQYLAAVGVGELVVVDDDVVERSNLQRQVVHCDDDVGTPKAESAAAFVRGLNPDVSVEPVEARVDKSNVHEVVAGSDVVVDASDNFPTRYLLNDVCRFEGIPLVHGAIYKFEGQATTLVPDGPCYRCLFPEAPEPGTVPDCATTGVLGVLPGTVGCIQATEAMKLLLDEGEALDGRLLFYDAMDMTFETVPYRTNPDCPVCGEGGVDSIEDIDYVESCAISLD
[1]
  Pi detected by colorimetric (malachite green) assay in the HvPPA-coupled adenylation assay: Deletion of the C-terminal diglycine residues of SAMP1 (ΔGG) were found to significantly reduce the level of Pi detected by this assay
[2]
  Pi detected by colorimetric (malachite green) assay in the HvPPA-coupled adenylation assay: Significant levels of Pi were detected when UbaA and HvPPA were coupled with ATP and SAMP1 in the reaction

B2: HvPPA with an N-terminal poly-histidine tag (His6-HvPPA) linked with a thrombin-cleavage site (enzyme)
chain: MVNLWEDMETGPNAPDEIYAVVECLKGERNKYEYDKDIPGVVLDRVLHSNVHYPSDYGFIPQTYYDDEDPFDVLVLVEDQTFPGCVIEARPVALMKMDDDGEQDDKVIAVPVEDPRYDHIEDLDDIPQQTLDEIDEFFATYKNLEAGKEVETLGWEDKQAAKDAIEHAMDLYEENFA
notes: Expressed in Hfx. volcanii H26-pJAM2920; Purified by Ni2+ IMAC and SEC as homo-hexamers (~134 kDa) and homo-trimers (~64 kDa); also called HVO_0729; Haloferax volcanii inorganic pyrophosphatase; not shown: N-terminal His6 tag and thrombin-cleavage site from vector pJAM503
[3]
  binding result: binds
